Reference: patent US20190077844A1 (published 2019)

How the values were obtained:
[1] = target: T1, Recombinant murine glypican-3 (aa 25-557) (R&D Systems) (murine, UniProt Q8CFZ4 25-557); test: SPR 1-point off-rate, ratio to parental ADX_6077_F02
T1 construct: also called muGPC3; murine GPC3
Description: (§1) Surface plasmon resonance (SPR) was performed to calculate off-rates (kd) and binding affinities of α-GPC3 adnectins and tubulysin-conjugated AdxDCs using a Biacore T100 instrument (GE Healthcare). […] SPR experiments were conducted at 37° C. using HBS-P+(10 mM HEPES, 150 mM NaCl, 0.05% (v/v) Surfactant P20, pH 7.4) running buffer (GE Healthcare). […] For off-rate measurements, single 200 nM adnectin/AdxDC concentrations were injected using identical conditions. One 30s injection of 10 mM glycine pH 1.7 was used to remove bound adnectin and regenerate the GPC₃ surfaces between assay cycles.
(§2) Rate constants kₐ (kₒₙ) and kd (koff) were derived from reference-subtracted sensorgrams fit to a 1:1 binding model in Biacore T100 Evaluation Software v2.0.4 (GE Healthcare). The affinity constant, KD was calculated from the ratio of rate constants kd/kₐ.
(§3) One-hundred to one-hundred-fifty milligrams of each of the eight mutants was made, purified and alkylated as previously above. Three to five milligrams of each of eight alkylated variants at 1-3 mg/mL were subjected to SEC, DSC, GPC3 binding (SPR 1 pt off-rates), MS and HIC.

[2] = target: T2, Recombinant human glypican-3 (aa 1-559), His-tagged (R&D Systems) (human, UniProt P51654 25-559); test: as above
T2 construct: also called huGPC3; human GPC3
Description: as §1, §2, §3

[3] = target: T3, Human glypican-3 on cells (Huh7, Hep3B, H446, HepG2; Hep3B xenograft tissue) (human, UniProt P51654 25-554); test: flow cytometry on Huh7 cells, EC50 ratio to parent Adnectin
T3 construct: Endogenous GPC3 of human tumor cell lines; also called huGPC3 on cells; GPC3 receptor
Description: The binding of DG variants to huGPC3 in DG GPC3 AdxDCs mutants were evaluated by flow cytometry for binding to Huh7 carcinoma cells grown in DMEM media with 10% FBS. Cells were harvested using Versene, an EDTA cell dissociation solution from Lonza, Cat. #17-711E. Tumor cells (1E5 cells/reaction) were suspended in FACS buffer (PBS, 1% BSA, 0.05% Na Azide) and mixed with a serial dilution of AdxDC for one hour on ice. Cells were washed three times with FACS buffer, and bound AdxDC was detected with an in house anti-scaffold monoclonal Ab and PE-conjugated Antibody from (RnD Systems), cat#NL007, and read on a flow cytometer.

T3 sequence (P51654 25-554 limits assumed): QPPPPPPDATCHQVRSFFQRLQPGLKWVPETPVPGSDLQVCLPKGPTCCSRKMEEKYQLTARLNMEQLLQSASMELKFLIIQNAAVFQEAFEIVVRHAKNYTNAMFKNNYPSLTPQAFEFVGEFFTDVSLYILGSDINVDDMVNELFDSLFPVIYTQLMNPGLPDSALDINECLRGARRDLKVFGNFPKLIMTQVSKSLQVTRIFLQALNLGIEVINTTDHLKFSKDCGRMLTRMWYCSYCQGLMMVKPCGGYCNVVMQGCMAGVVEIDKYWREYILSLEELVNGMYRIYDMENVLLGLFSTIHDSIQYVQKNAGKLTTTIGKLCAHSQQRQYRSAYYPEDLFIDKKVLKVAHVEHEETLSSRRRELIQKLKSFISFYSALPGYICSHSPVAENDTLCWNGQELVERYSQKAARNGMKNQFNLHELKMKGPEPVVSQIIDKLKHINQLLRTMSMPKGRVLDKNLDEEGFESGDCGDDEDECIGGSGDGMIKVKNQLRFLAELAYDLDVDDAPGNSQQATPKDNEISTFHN
T2 sequence (P51654 other isoform, or with tags, fused parts or gaps): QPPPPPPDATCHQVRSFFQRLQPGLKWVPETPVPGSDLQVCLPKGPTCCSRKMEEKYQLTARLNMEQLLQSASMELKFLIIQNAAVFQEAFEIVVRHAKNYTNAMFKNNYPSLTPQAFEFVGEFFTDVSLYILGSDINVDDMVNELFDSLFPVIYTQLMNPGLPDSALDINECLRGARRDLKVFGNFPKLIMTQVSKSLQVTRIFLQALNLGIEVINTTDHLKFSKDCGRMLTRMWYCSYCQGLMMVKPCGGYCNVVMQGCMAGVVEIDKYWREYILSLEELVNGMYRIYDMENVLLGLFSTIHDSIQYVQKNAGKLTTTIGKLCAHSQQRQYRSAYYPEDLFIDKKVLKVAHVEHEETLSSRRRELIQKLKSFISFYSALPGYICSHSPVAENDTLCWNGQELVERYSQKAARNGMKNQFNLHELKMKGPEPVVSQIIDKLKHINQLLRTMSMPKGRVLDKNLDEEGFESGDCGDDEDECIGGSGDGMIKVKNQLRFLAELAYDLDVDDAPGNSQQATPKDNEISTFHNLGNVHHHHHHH
T1 sequence (Q8CFZ4 25-557 limits assumed, form in doubt): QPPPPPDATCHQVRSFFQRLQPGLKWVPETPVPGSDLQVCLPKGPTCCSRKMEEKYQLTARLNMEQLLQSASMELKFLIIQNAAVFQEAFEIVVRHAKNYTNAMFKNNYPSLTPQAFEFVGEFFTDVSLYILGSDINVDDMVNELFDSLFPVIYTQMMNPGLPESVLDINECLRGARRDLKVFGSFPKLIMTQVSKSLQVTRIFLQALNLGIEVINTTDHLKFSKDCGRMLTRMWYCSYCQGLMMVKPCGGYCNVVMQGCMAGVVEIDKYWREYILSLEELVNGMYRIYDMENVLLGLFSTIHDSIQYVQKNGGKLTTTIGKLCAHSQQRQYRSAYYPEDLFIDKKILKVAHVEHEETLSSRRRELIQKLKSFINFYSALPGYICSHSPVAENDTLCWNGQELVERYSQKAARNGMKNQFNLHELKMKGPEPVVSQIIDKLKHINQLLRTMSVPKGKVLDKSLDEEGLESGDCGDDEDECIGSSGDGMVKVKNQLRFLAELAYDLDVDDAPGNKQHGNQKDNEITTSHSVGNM

Binder | muGPC3 koff (mut/par) [1] | huGPC3 koff (mut/par) [2] | huGPC3 on cells EC50 (mutant/parent) [3]
ADX_6077_F02 DG→DA mutant, alkylated (designed binder, C-terminal cysteine alkylated, also called P1-055660) GVSDVPRDLEVVAATPTSLLISWSDDYHAHRYYRITYGETGGNSPVQEFTVPGEHVTATISGLKPGVDYTITVYAVTYDAEKAATDWSISINYRTPC | 3.7 ratio mutant/parent | 3.9 ratio mutant/parent | 1.3 ratio mutant/parent
ADX_6077_F02 DG→GG mutant, alkylated (designed binder, C-terminal cysteine alkylated, also called P1-055670) GVSDVPRDLEVVAATPTSLLISWSDDYHAHRYYRITYGETGGNSPVQEFTVPGEHVTATISGLKPGVDYTITVYAVTYGGEKAATDWSISINYRTPC | 12 ratio mutant/parent | 14 ratio mutant/parent | 
ADX_6077_F02 DG→DL mutant, alkylated (designed binder, C-terminal cysteine alkylated, also called P1-055671) GVSDVPRDLEVVAATPTSLLISWSDDYHAHRYYRITYGETGGNSPVQEFTVPGEHVTATISGLKPGVDYTITVYAVTYDLEKAATDWSISINYRTPC | 3.1 ratio mutant/parent | 3.6 ratio mutant/parent | 1.7 ratio mutant/parent
ADX_6077_F02 DG→AG mutant, alkylated (designed binder, C-terminal cysteine alkylated, also called P1-055669) GVSDVPRDLEVVAATPTSLLISWSDDYHAHRYYRITYGETGGNSPVQEFTVPGEHVTATISGLKPGVDYTITVYAVTYAGEKAATDWSISINYRTPC | 5.5 ratio mutant/parent | 5.9 ratio mutant/parent | 1.1 ratio mutant/parent
ADX_6077_F02 DG→SG mutant, alkylated (designed binder, C-terminal cysteine alkylated, also called P1-055668) VSDVPRDLEVVAATPTSLLISWSDDYHAHRYYRITYGETGGNSPVQEFTVPGEHVTATISGLKPGVDYTITVYAVTYSGEKAATDWSISINYRTPC | 4.8 ratio mutant/parent | 5.2 ratio mutant/parent | 1.1 ratio mutant/parent

The next lines start with the values.

muGPC3 koff (mut/par) [1] | huGPC3 koff (mut/par) [2] | huGPC3 on cells EC50 (mutant/parent) [3] | Binder
7 ratio mutant/parent | 7.9 ratio mutant/parent |  | ADX_6077_F02 DG→DV mutant, alkylated (designed binder, C-terminal cysteine alkylated, also called P1-055672) GVSDVPRDLEVVAATPTSLLISWSDDYHAHRYYRITYGETGGNSPVQEFTVPGEHVTATISGLKPGVDYTITVYAVTYDVEKAATDWSISINYRTPC
3.3 ratio mutant/parent | 3.5 ratio mutant/parent | 1.4 ratio mutant/parent | ADX_6077_F02 DG→DS mutant, alkylated (designed binder, C-terminal cysteine alkylated, also called P1-055667) GVSDVPRDLEVVAATPTSLLISWSDDYHAHRYYRITYGETGGNSPVQEFTVPGEHVTATISGLKPGVDYTITVYAVTYDSEKAATDWSISINYRTPC
5.1 ratio mutant/parent | 5.4 ratio mutant/parent | 1.6 ratio mutant/parent | ADX_6077_F02 DG→EG mutant, alkylated (designed binder, C-terminal cysteine alkylated, also called P1-055673) GVSDVPRDLEVVAATPTSLLISWSDDYHAHRYYRITYGETGGNSPVQEFTVPGEHVTATISGLKPGVDYTITVYAVTYEGEKAATDWSISINYRTPC
